Results on 24 molecules are retold here after publication PMC12377726 (Proceedings of the National Academy of Sciences of the …, 2025).

The chains are these.
B1: G001_gp1_V07_VRC01c_91 (antibody, V domains shown)
VH: QVQLVQSGAEVKKPGASVKVSCKASGYTFTDYYIHWVRQAPGQGLEWMGWISPNSGGTNFAQKFQGSVTMTRDTSISTAYMELSRLRSDDTAVYFCARDGGWKRGWGFQFWGQGTLVTVSS
VL: QSALTQPPSASGSPGQSVTISCTGTSSDVGDYKYVSWYQQHPGKAPKLVIYEVSKRPSGVPDRFSGSKSGNTASLTVSGLQAEDEADYYCSSYEVFGGGTKLTVL
B2: G001_LD_V07A_VRC01c_41 (antibody, V domains shown)
VH: QVQLVQSGAEVKKPGASVRVSCRASGYTFSDYYIHWVRQAPGQGLEWMGWINPTSGGTNYAQRFQGRVTMTRDTSISTAYMELSRLRSDDTAVYYCARNLGNSGWYFAWGQGTLVTVSS
VL: DIQMTQSPSTLSASVGDRVTITCRASQSISSWLAWYQQKPGKAPKLLIYKASSLESGVPSRFSGSGSGTEFTLTISNLQPDDFGTYYCQQYETFGQGTKVEIK
B3: G001_gp1_V08_VRC01c_116 (antibody, V domains shown)
VH: QVQLVQSGAEVKKPGASGKVSCKASGYTFTDYYMYWVRQAPGQGLEWMGWINPNSGGSNYAQKFQGRVTMTRDTSISTAYMELSRLRSDDTAVYYCARRSEDRKAFDIWGQGTMVTVSS
VL: DIQMTQSPSTLSASVGDRVTITCRASQSISSWLAWYQQKPGKAPKLLIYKASSLESGVPSKFSGSGSGTEFTLTISSLQPDDFATYYCQQYDTFGQGTKLQIK
B4: G001_gp1_V08_VRC01c_122 (antibody, V domains shown)
VH: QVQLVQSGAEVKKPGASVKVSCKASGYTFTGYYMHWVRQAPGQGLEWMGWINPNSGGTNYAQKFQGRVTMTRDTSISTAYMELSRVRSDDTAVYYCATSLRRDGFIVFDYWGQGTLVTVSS
VL: DIQMTQSPSTLSASVGDRVTITCRASQSISSWLAWYQQKPGKAPKLLIYKASSLESGVPSRFSGSGSGTEFTLTISSLQPDDFATYYCQQYETFGQGTKVEIK
B5: G001_gp1_V08_VRC01c_121 (antibody, V domains shown)
VH: QVQLVQSGAEVRKPGASVKVSCKASGYTFTDYYMHWVRQAPGQGLECMGWINPDSGGTNYAQKFQGRVTMTRDTSISTVYMELSRLRSDDTAVYYCARPALYDSSGYNWAYWGQGSLVTVSS
VL: DIQMTQSPSTLSASVGDRVTITCRASQSINRWLAWYQQKPGKAPKLLIYKTSSLENGVPSRFNGSGSGTEFTLTISSLQPDDFATYYCQHYETFGQGTKVEIK
B6: G001_gp1_V08_VRC01c_114 (antibody, V domains shown)
VH: QVQLVQSGAEVKKPGASGKVSCKASGYTFTDYYMYWVRQAPGQGLEWIGWINPTSGGSNYAQKFQGRVTMTRDTSISTAYMELSRLRSDDTAVYYCARRSEDRKAFDIWGQGTMVTVSS
VL: DIQMTQSPSTLSASVGDRVTITCRASQSISSWLAWYQQKPGKAPKLLIYKASSLESGVPSKFSGSGSGTEFTLTISSLQPDDFATYYCQQYDTFGQGTKLEIK
B7: G001_gp1_V08_VRC01c_120 (antibody, V domains shown)
VH: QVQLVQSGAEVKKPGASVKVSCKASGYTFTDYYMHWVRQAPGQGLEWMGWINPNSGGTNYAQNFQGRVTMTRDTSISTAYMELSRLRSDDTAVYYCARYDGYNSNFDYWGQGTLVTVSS
VL: DIQMTQSPSTLSASVGDRVTITCRASQSISNWLAWFQQKPGKAPKLLIYKASNLESGVPSRFSGSGSGTEFTLTISSLQPDDFATYYCQKYNTFGQGTKLEIK
B8: G001_gp1_V07_VRC01c_2021-0040 (antibody, V domains shown)
VH: QVQLVQSGAEVKKPGASVKVSCKASGYTFTGYYMHWVRQAPGQGLEWMGWINPNSGGSNYAQKFQGRVTMTRDRSITTAYMELSRLRSDDTAVYYCARDHTGTAGWYFDLWGRGTLVTVSS
VL: EIVLTQSPGTLSLSPGERATLSCRASQSVSSSYLAWYHQKPGQAPRLLIYGASSRATGIPDRFSGSGSGTDFTLTISRLEPEDFAVYYCQQYETFGQGTKVEIT
B9: G001_LD_V07A_VRC01c_65 (antibody, V domains shown)
VH: QVQLVQSGAEVKKPGASVKVSCKASGYTFTGYYMHWVRQAPGQGLEWMGWINPNSGGTNYAQKFQGYVTMTRDTSISTAFMELSRLRSDDAAVYYCATSIAAPDSYWYFDLWGRGTLVTVSS
VL: EIVLTQSPGTLSLSPGERATLSCRASQSVTSSYLAWYQQKPGQAPRLLIYGASSRATGIPDRFSGSGSGTDFTLTISRLEPEDFAVYYCQQYEFFGQGTKLEIK
B10: G001_gp1_V07_VRC01c_99 (antibody, V domains shown)
VH: QVQLVQSGAEVKKPGASVKVSCKASGYTFTDYYMHWVRQAPGQGLEWMGWINPNSGGTNYAQKFQGRVTMTRDTSISTAYMDLSRLRSDDTAMYYCATSPHEYSTSWEFDSWGQGTLVTVSS
VL: DIVLTQSPGTLSLSPGERATLSCRASQSVSSSNLAWYQQKPGQAPRLLIYGAFKRATGIPDRFSGSGSGTDFTLTISRLEPEDFAVYYCQQYETFGQGTKVEIK
B11: G001_gp1_V07_VRC01c_90 (antibody, V domains shown)
VH: QVQLVQSGAEVKKPGASVKVSCKASGYTFTDYYMHWVRQAPGQGLEWMGWINPNSGGTNYAQKFQGRVTMTRDTSISTAYVVLTRLRSDDTAVYYCATVEWGGSGWNYDYWGQGTLVTVSS
VL: EIVMTQSPATLSVSPGERATLSCRASQSVSSNLAWYQQKPGQAPRLLIYGASTRATGIPARFSGSGSGTEFTLTISSLQSEDFAVYYCQQYETFGQGTKVEIK
B12: G001_gp1_V08_VRC01c_123 (antibody, V domains shown)
VH: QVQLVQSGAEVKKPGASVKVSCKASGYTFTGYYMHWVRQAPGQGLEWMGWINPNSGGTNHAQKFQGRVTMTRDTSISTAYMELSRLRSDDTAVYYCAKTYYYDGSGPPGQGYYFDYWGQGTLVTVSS
VL: EIVMTQSPATLSVSPGERATLSCRANQSVSSNLAWYQQKPGQAPRLLIYGASTRATGIPARFSGSGSGTEFTLTISSLQSEDFAVYYCQQYNSFGQGTKLEIK
B13: G001_gp1_V07_VRC01c_94 (antibody, V domains shown)
VH: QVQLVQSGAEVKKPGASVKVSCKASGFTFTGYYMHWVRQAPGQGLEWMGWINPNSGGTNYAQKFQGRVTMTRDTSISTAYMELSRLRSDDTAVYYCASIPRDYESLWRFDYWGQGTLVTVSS
VL: EIVMTQSPATLSVSPGERATLSCRASQSVSSNLAWYQQKPGQAPRLLIYGASTRATGIPARFSGSGSGTEFTLTISSLQSEDFAVYYCQQYNTFGQGTRLEIK
B14: G001_gp1_V07_VRC01c_2021-0044 (antibody, V domains shown)
VH: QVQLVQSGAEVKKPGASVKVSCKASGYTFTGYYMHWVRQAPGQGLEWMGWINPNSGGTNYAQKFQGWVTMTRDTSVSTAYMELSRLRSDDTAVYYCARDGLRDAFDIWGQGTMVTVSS
VL: QSALTQPASVSGPPGQSITISCTGTSSDFGGHNSVSWYQQHPGKAPKLMIYDVSNRPSGVSNRFSGSKSGNTASLTISGLQAEDEADYYCSSYKVFGGGTKLTVL
B15: G001_gp1_V07_VRC01c_97 (antibody, V domains shown)
VH: QVQLVQSGAEVKKPGASVKVSCKASGYSFTDYYMHWVRQAPGQGLEWMGWINPNSGGTNYAQKFQGRVTMTRDTSISTAYMELSRLRSDDTAVYYCASDVEMANRGGWKFDYWGQGTLVTVSS
VL: QSALTQPASVSGSPGQSITISCTGTSSDVGSYNLVSWYQQHPGTAPKLMIYEVSKRPSGVSNRFSGSKSGNTASLTISGLQAEDEADYYCCSYEVFGGGTKLTVL
B16: G001_gp1_V08_VRC01c_115 (antibody, V domains shown)
VH: QVQLVQSGAEVKKPGASVKVFCKTSGYIFTDYYMHWVRQAPGQGLEWMGWINPNSGGTNYAQKFQGRVTMTRDTSISTAYMELSRLRSDDTAVYYCARAYYGDYGDYWGQGTLVTVSS
VL: DIVMTQSPDSLAVSLGERATINCKSSQSVLYSSDNKNYLSWYQQKPRQPPKLLIYWASTRESGVPDRFTGSGSGTDFTLTISSLQAEDVAVYYCQQYWTFGQGTKVEIK
B17: G001_gp1_V07_VRC01c_2021-0039 (antibody, V domains shown)
VH: QVQLVQSGAEVKKPGASVRVSCKASGNTFTDYYMHWVRQAPGQGLEWMGWINPNSGGTNYAQKFQGRVTMTRDTSISTAYMELSRLRSDDTAVYYCASPGAAGQPWGFGYWGQGTLVTVSS
VL: DIQMTQSPSSLSASVGDRVTITCQASQDISNYLNWYQQKPGKAPKLLIYDASHLETGVPSRFSGSESGTECTLTISSLQPEDIATYYCQQYEFFGGGTKVEIK
B18: G001_LD_V07A_VRC01c_40 (antibody, V domains shown)
VH: not shown
VL: DIQMTQSPSSLSASVGDRVTITCQASQDISNYLNWYQQKPGKAPKLLIYDASNLETGVPSRFSGSASGTESSFTISSLQPEDIATYYCQQYETFGPGTKVDIK
B19: G001_gp1_V08_VRC01c_117 (antibody, V domains shown)
VH: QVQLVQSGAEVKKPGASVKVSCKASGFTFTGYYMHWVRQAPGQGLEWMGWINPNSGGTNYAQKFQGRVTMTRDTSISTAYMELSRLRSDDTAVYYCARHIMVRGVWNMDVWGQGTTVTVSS
VL: DIQMTQSPSSLSASVGDRVTITCQASQDISNYLNWYQQKPGKAPKLLIYDASNLEKGVPSRFSGGGSGTDFTFTISSLQPEDIATYYCQQYEFFGPGTKVDIK
B20: G001_gp1_V08_VRC01c_126 (antibody, V domains shown)
VH: QVQLVQSGAEVKKPGASVKVSCKASGYTFTGYYMHWVRQAPGQGLEWMGWINPNSGGTNYAQKFQDWVTMTRDTSISTAYMELNRLRSDDAAIYYCARADIVATIWALDYWGQGTLVTVSS
VL: DIQMTQSPSSLSASVGDRVTITCQASQDISTYLNWYQQKPGKAPKLLIYDASNLETGVPSRFSGSGSGTDFTFTISSLQPEDSATYYCQQYGTFGQGTKVEIK
B21: G001_gp1_V07_VRC01c_2021-0048 (antibody, V domains shown)
VH: RVQLVQSGAEVKKPGASVKVSCKASGYTFTGYYMHWVRQAPGQGLEWMGWINPNSGGTNYAQKFQGRVTMTRATSISTAYMELSRLRFDDTAVYYCARGGSRGWSLDYWGQGTLVTVSS
VL: DIQMTQSPSSLSASVGDRVTITCQASQDISNYLNWYQQKLGKAPKLLIYDASNLETGVPSRFSGSGSGTDFSLTISSLQPEDIATYYCQQYETFGQGTKLEIK
B22: G001_gp1_V07_VRC01c_92 (antibody, V domains shown)
VH: QVQLVQSGAEVRKPGASVKVSCKASGYTFTDSYMHWVRQAPGQGLEWMGWINPNSGGTNYAQKFQGRVTMTRDTSITTAYMELSRLRFDDTAIYYCATVATIAAPWAFDYWGQGALVTVSS
VL: DIQMTQSPSSLSASVGDRVSITCQASQDINNYLNWYQQKPGKAPKLLIYDVSNLQTGVPSRFSGRGSGTDFTFTISSLQPEDSATYYCQQYERFGQGTKLEIK
B23: G001_gp1_V08_VRC01c_119 (antibody, V domains shown)
VH: QVQLVQSGADVKKPGASVKVSCKASGYTFSGYYMHWVRQAPGQGLEWMGWINPNSGGTNYAQNFQGRVTMTRDTSISTAYMELSSLTSDDTAVYYCASPRYSNGNRCYRYWGQGTLVTVSS
VL: DIQMTQSPSSLSASVGDRVTITCQASQDISNYLNWYQHHPGRAPKLLIYDASNLETGVPSRFSGSGSGTDFTFTISSLQPEDVATYYCQQYDYFGPGTKVDIK
B24: G001_LD_V07A_VRC01c_46 (antibody, V domains shown)
VH: QVQLVQSGAEVKKPGASVKVSCKASGYTFTDYYMHWVRQAPGQGLEWMGWINPNSGGTNYAQKFQGWVTMTRDTSISTAYMELTRLRSDDTAVYYCAVRKNGGDCSFCFGYWGQGTLVTVSS
VL: QSVLTQPPSVSGAPGQRVTISCTGSSSNIGAGYDVHWYQQLPGTAPKLLIYGNNNRPSGVPDRFSGSKSGTSASLAITGLQAEDEADYYCQSYEMFGGGTKLTVL

In this assay the target is eOD-GT8 (engineered outer domain germline-targeting version 8), monomer (HIV-1 gp120 engineered outer domain, …).
Consider B1, for which the binding result is reported as “binds”.

For the molecule B2, the binding result is given as “binds”.

For B3, the binding result is on record as “binds”.

As to B4, the binding result was “binds”.

B5: the binding result was “binds”.

In the case of B6, the binding result is “binds”.

For B7, the binding result was “binds”.

B8: the binding result is reported as “binds”.

Regarding B9, the binding result was “binds”.

On to B10, for which the binding result is recorded as “binds”.

On to B11, for which the binding result is listed as “binds”.

For B12, the binding result is recorded as “binds”.

Regarding B13, the binding result is “binds”.

B14: the binding result is recorded as “binds”.

Turning to B15, the binding result was “binds”.

For the molecule B16, the binding result is recorded as “binds”.

B17: the binding result is reported as “binds”.

For the molecule B18, the binding result is given as “binds”.

Take B19: the binding result is on record as “binds”.

As to B20, the binding result was “binds”.

As to B21, the binding result is listed as “binds”.

For the molecule B22, the binding result is “binds”.

Regarding B23, the binding result is listed as “binds”.

Consider B24, for which the binding result is given as “binds”.
